The record followed here is patent publication US20250051456A1 (Hoffmann-La Roche, published 2025).

One may read the EC50 as the concentration at which the effect is half-maximal.

Experiment [1] concerns the target human HLA-G expressed on cells (JEG3 naturally; Skov3 and PA-TU-8902 transfectants) (human). As to the kind of experiment: cell-based or functional assay.
Experiment [2] addresses T1, monomeric human HLA-G β2M MHC class I complex (soluble recombinant wt HLA-G) (human).
T1 construct: also called HLA-G-0003; wt HLA-G (monomer)
As to the kind of experiment: ELISA, biotinylated wt HLA-G monomer on streptavidin plate; the 6th table ELISA series (monomer, dimer, trimer), separate from the 7th table. The method, then: The above table summarizes the binding of different rat anti-human HLA-G monoclonal antibodies, derived from wt protein IMS. Shown are the relative EC50 values [ng/ml] of the respective binding to rec. wt monomeric, dimeric and trimeric HLA-G proteins as assessed by ELISA. The ELISA was set up by coating the biotinylated wt HLA-G antigen to strepdavidin plates. After incubation and washing steps, the respective antibodies were bound in a concentration range from […] in 1:2 dilution steps. Detection of bound antibodies was carried out by anti-Fc-antibody-POD conjugates. EC50 values were determined from the resulting binding curves at the antibody concentrations generating the half-maximal signal. In case of the non-biotinylated HLA-G dimer and trimer antigens, immobilization was carried out by random coating on assay plates.
In general terms: In an ELISA, binding on a coated surface is turned into a signal by an enzyme label.

B1: HLA-G-0031 (antibody, V domains shown)
VH: QVKLMQSGAALVKPGTSVKMSCNASGYTFTDYWVSWVKQSHGKRLEWVGEISPNSGASNFDENFKDKATLTVDKSTSTAYMELSRLTSEDSAIYYCTRSSHGSFRWFAYWGQGTLVTVSS
VL: AIVLNQSPSSIVASQGEKVTITCRASSSVSSNHLHWYQQKPGAFPKFVIYSTSQRASGIPSRFSGSGSGTSYSFTISRVEAEDVATYYCQQGSSNPYTFGAGTKLELK
With B1, in experiment [1], the “% TNF release (restoration), different donor, JEG-3 wt co-culture; antibody 0.16 µg/ml” value was determined as 14%; the “% TNF release (restoration), different donor, JEG-3 wt co-culture; antibody 0.63 µg/ml” value was 44%; the “% TNF release (restoration), different donor, JEG-3 wt co-culture; antibody 2.5 µg/ml” value was determined as 67%; the “% TNF release (restoration), different donor, JEG-3 wt co-culture; antibody 10 µg/ml” value was 74%.

B2: HLA-G-0090 (antibody, V domains shown)
VH: QVQLQQSGPGLLKPSQTLSLTCAISGDSVSSNRAAWNWIRQSPSRGLEWLGRTYYRSKWYNDYAVSVQGRITLIPDTSKNQFSLRLNSVTPEDTAVYYCASVRAVAPFDYWGQGVLVTVSS
VL: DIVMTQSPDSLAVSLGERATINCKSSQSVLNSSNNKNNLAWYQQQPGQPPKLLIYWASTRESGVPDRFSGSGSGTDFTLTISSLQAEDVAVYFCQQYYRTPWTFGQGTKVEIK
On to B2, for which, in experiment [1], the “% TNF release (restoration), different donor, JEG-3 wt co-culture; antibody 0.16 µg/ml” value came to 198%; the “% TNF release (restoration), different donor, JEG-3 wt co-culture; antibody 0.63 µg/ml” value was found to be 219%; the “% TNF release (restoration), different donor, JEG-3 wt co-culture; antibody 2.5 µg/ml” value worked out at 233%; the “% TNF release (restoration), different donor, JEG-3 wt co-culture; antibody 10 µg/ml” value was determined as 221%.

B3: HLA-G-0041 (antibody, V domains shown)
VH: EVQLLESGGGLVQPGGSLRLSCAASGFTFSTYGMSWVRQAPGKGLEWVSVISGGGVSTYYADSVKGRFTISRDNSKNTLYLQMNRLRAEDTAVYYCAKDGSYNYGYGDYFDYWGQGTLVTVSS
VL: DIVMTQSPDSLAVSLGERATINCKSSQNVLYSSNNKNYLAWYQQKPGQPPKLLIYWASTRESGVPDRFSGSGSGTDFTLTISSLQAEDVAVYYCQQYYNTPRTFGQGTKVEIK
On to B3, for which, in experiment [2], the EC50 was 4.95 ng/mL. In experiment [1], the “% TNF release (restoration), different donor, JEG-3 wt co-culture; antibody 0.16 µg/ml” value is 44%; the “% TNF release (restoration), different donor, JEG-3 wt co-culture; antibody 0.63 µg/ml” value is 66%; the “% TNF release (restoration), different donor, JEG-3 wt co-culture; antibody 2.5 µg/ml” value is 59%; the “% TNF release (restoration), different donor, JEG-3 wt co-culture; antibody 10 µg/ml” value is 40%.
